Test results as given in patent US20240190989A1 (BEIGENE SWITZERLAND, published 2024).

Assays:
[1] = biological target: T1, CEACAM3 transiently expressed on HEK293 cells (Homo sapiens (Human), UniProt P40198 35-252); experiment: flow cytometry on transfected HEK293 cells
T1 sequence: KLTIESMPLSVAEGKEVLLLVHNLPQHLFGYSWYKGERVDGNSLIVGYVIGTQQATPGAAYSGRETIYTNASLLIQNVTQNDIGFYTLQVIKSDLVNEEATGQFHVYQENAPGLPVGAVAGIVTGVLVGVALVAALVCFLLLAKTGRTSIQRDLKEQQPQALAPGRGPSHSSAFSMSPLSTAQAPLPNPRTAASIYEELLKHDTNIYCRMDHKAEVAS

[2] = biological target: T2, full-length human CEA on cells (MKN45, LOVO, L929/huCEA, CT26/CEA, CT26-OS8-CEA) (human, UniProt P06731 35-685); experiment: flow cytometry on MKN45 cells, no soluble CEA
T2 construct: also called CEACAM5; native CEA
T2 sequence: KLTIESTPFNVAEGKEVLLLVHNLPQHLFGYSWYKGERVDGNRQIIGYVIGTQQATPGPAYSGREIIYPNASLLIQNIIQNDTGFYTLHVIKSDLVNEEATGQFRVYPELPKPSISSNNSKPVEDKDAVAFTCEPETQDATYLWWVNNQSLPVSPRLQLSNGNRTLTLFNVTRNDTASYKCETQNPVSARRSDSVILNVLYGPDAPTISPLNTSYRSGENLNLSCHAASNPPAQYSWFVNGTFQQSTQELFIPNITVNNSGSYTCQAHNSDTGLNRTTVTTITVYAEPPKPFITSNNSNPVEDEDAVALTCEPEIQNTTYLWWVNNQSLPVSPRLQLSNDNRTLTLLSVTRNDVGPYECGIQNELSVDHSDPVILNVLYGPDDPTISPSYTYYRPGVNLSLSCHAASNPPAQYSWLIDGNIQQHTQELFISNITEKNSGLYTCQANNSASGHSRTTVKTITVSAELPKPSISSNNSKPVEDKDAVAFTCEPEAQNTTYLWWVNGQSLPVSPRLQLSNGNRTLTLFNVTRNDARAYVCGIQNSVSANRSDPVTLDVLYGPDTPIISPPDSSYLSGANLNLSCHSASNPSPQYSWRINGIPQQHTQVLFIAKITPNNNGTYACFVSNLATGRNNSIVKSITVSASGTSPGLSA

[3] = biological target: T3, CEACAM7 transiently expressed on HEK293 cells (Homo sapiens (Human), UniProt Q14002 36-242); experiment: flow cytometry on transiently transfected HEK293 cells [panel B]
T3 sequence: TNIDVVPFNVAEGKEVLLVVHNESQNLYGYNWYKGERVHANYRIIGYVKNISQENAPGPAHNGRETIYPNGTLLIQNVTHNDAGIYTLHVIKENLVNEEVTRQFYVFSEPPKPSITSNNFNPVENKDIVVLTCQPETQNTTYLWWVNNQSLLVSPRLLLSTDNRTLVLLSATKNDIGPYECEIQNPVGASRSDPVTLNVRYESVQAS

[4] = biological target: T4, CEACAM8 transiently expressed on HEK293 cells (Homo sapiens (Human), UniProt P31997 35-320); experiment: as above
T4 sequence: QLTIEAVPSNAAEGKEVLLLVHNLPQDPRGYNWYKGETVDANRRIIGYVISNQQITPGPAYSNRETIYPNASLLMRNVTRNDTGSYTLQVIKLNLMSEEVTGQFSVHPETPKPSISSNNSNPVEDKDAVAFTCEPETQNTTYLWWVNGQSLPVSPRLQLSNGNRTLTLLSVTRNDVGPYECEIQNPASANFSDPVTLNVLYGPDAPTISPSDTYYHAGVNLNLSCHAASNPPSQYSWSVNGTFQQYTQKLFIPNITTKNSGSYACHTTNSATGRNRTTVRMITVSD

[5] = biological target: T5, human CEACAM6, amino acids 1-320 with C-terminal 6xHis tag (human, UniProt P40199 35-320); experiment: antigen ELISA, antigens coated at 10 µg/ml, anti-human Fc-HRP [panel A]
T5 sequence: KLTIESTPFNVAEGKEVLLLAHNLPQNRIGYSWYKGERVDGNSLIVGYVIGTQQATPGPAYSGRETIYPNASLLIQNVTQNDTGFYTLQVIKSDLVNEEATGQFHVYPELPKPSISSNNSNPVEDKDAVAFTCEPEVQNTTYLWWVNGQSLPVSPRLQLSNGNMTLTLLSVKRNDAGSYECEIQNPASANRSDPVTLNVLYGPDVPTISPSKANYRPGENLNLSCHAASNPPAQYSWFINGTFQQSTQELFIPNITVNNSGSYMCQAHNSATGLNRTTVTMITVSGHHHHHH

[6] = biological target: T6, CEACAM1 (Cat. No. 10822-H08H, Sino Biological) (Homo sapiens (Human), UniProt P13688 35-428); experiment: as above
T6 construct: Bought protein
T6 sequence: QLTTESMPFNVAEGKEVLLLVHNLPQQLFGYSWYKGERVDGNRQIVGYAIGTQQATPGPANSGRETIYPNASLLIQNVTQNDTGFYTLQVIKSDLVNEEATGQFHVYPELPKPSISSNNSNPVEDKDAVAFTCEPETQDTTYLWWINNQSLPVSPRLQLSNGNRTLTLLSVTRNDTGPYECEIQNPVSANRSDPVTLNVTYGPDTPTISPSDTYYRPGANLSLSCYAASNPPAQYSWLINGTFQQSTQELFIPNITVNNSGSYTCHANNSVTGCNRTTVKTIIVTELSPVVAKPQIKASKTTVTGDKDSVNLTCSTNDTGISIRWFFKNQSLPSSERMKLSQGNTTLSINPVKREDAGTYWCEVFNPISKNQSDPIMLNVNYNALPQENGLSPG

binding result [1]: no binding (tested: 2 ug/ml)
EC50 (read off the curve) [2]: ~0.8 µg/mL
binding result [5]: no binding (tested: not shown)
binding result [6]: no binding (tested: not shown)
B1: BGA113K (BGA113 with Y57K in the heavy chain) (antibody, human IgG1, V domains shown)
VH: QVQLVQSGAEVKKPGASVKVSCKASGYIFTSYYLHWVRQAPGQGLEWIGYINPQTGKTSYAQKFQGRVTMTRDTSTSTVYMELSSLRSEDTAVYYCAREYGNYNYPLDYWGQGTLVTVSS
VL: DIQMTQSPSSLSASVGDRVTITCRASENQYGYLAWYQQKPGKVPKLLIYNYKNLVEGVPSRFSGSGSGTDFTLTISSLQPEDVATYYCQHHLGTPYTFGQGTKVEIK
binding result [3]: no binding (tested: 2 µg/ml (not on the sheet))
binding result [4]: no binding (tested: 2 µg/ml (not on the sheet))
